These results are taken from paper doi:10.1101/2025.09.16.676304, “FoxP3 forms a head-to-head dimer in vivo and stabilizes its multimerization on adjacent microsatellites”.

What all share (conditions): protein: recombinant;recombinant; tags: His6-NusA removed by HRV3C;His6-NusA removed by HRV3C; copies: 1;1
For data set [1], the target named is T1, FoxP3 RBR-FKH;NFAT1 (Mus musculus;Mus musculus, UniProt Q99JB6;Q60591 284-423;394-680, |).
T1 sequence 1: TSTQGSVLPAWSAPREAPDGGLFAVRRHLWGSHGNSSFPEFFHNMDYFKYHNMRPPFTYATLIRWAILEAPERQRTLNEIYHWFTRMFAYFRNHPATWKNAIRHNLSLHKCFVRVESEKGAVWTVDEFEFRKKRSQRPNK
T1 sequence 2: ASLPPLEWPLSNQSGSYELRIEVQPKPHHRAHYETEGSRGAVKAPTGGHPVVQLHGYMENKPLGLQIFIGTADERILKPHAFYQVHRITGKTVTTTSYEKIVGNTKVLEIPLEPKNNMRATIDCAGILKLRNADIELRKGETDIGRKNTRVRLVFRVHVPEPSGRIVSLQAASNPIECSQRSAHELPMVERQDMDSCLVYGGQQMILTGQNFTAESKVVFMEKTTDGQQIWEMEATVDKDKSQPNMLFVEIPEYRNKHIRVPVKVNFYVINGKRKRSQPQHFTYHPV
Briefly: EMSA; NFAT 0.4 uM; FoxP3 dimer; EMSA: 20 mM HEPES pH 7.5, 150 mM NaCl, 1.5 mM MgCl2, 2 mM DTT, 4 C, 0.2 uM DNA; pull-down: 20 mM Tris-HCl pH 7.5, 100 mM NaCl, 1.5 mM MgCl2, RT, 0.4 uM protein, 0.1 uM DNA. (In general: Mobility shift assays separate free from complexed probe on a gel.)

Data set [2] concerns the target T2, FoxP1 RBR-FKH;NFAT1 (Mus musculus;Mus musculus, UniProt P58462;Q60591 427-579;394-680, |).
T2 sequence 1: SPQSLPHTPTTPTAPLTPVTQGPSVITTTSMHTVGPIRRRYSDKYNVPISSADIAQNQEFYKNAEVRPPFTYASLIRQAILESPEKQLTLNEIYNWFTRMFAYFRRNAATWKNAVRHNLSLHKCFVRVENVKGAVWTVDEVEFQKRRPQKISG
T2 sequence 2: T1 sequence 2
Briefly: EMSA; NFAT 0.4 uM; FoxP1 monomer; EMSA: 20 mM HEPES pH 7.5, 150 mM NaCl, 1.5 mM MgCl2, 2 mM DTT, 4 C, 0.2 uM DNA; pull-down: 20 mM Tris-HCl pH 7.5, 100 mM NaCl, 1.5 mM MgCl2, RT, 0.4 uM protein, 0.1 uM DNA.

The target of data set [3] is T1, FoxP3 RBR-FKH;NFAT1. Briefly: EMSA; NFAT 0.4 uM; FoxP3 monomer; EMSA: 20 mM HEPES pH 7.5, 150 mM NaCl, 1.5 mM MgCl2, 2 mM DTT, 4 C, 0.2 uM DNA; pull-down: 20 mM Tris-HCl pH 7.5, 100 mM NaCl, 1.5 mM MgCl2, RT, 0.4 uM protein, 0.1 uM DNA.

B1: IR-FKHM (DNA1) (dsDNA)
DNA 1: TAGGAAAATTTGTTTACTCGAGTAAACATC
DNA 2: GATGTTTACTCGAGTAAACAAATTTTCCTA
For B1, the binding result in data set [1] and in data set [2] was “binds” in each case.

B2: sFKHM (DNA2) (dsDNA)
DNA 1: TAGGAAAATTTGCCGCGTCGAGTAAACATC
DNA 2: GATGTTTACTCGACGCGGCAAATTTTCCTA
In the case of B2, the binding result in data set [3] and in data set [2] was “binds” each time.
